The target in series [1] is ΔVP1, Murine polyomavirus VP1 with the putative nuclear localization signal deleted (Murine polyomavirus) (UniProt P03090). Put plainly: SEC-MALS.
Series [2] concerns the molecule itself. The experiment in a line: SEC-MALS. For orientation: Size exclusion chromatography separates by hydrodynamic size, large species first.

Usually stoichiometry N stands for the number of molecules, sites or subunits per partner or assembly. Consider “ΔVP1, Murine polyomavirus VP1 with the putative nuclear localization signal deleted (from UniProt P03090 1-383) (natural protein)”, for which the stoichiometry N in series [1] was determined as 72 pentamers.

B1: wild-type Murine polyomavirus VP1 (natural protein, UniProt P03090 1-383, looked up)
chain: MAPKRKSGVSKCETKCTKACPRPAPVPKLLIKGGMEVLDLVTGPDSVTEIEAFLNPRMGQPPTPESLTEGGQYYGWSRGINLATSDTWIPRNNTLPTWSMAKSSFPCLNEDLTCDTLQMWEAVSVKTEVVGSGSLLDVHGFNKTHRFSKHKGNSTPVEGSQYHVFAGGGEPLDLQGLVTDARTKYKEEGVVTIKTITKKDMVNKDQVLNPISKAKLDKDGMYPVEIWHPDPAKNENTRYFGNYTGGTTAPPVLQFTNTLTTVLLDENGVGPLCKGEGLYLSCVDIMGWRVTRNYVSSLEKGFPRYFKITLRKRWVKNPYPMASLISSLFNNMLPQVQGQPMEGENTQVEEVRVYDGTEPVPGDPDMTRYVDRFGKTKTVFPGN
As to B1, in series [2], the “stoichiometry N” value is roughly 72 pentamers.

For the origin of these results see article PMC8689640 (ACS Synthetic Biology, 2021).
